Experiment: yeast display, Sf9 membrane polyspecificity reagent, FACS + sequencing; frameworks hold sequencing errors
Method in brief: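 Using colony PCR, genes from sorted yeast display clones were amplified, then sequenced on MiSeq at 2 × 250 and filtered by CDR length. The clones had been stained with 10% biotinylated, detergent-solubilized Sf9 membrane reagent for 1 hour at 4 °C and sorted by FACS into low and high (top ~1%) gates on anti-HA and streptavidin fluorescence. Polyreactivity labels come from the gate of origin.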

Sequence	polyreactivity (PSR sort gate)
QLQLVESGGGLVQAGGSLRLSCAASGRTFRLNGMGWYRQAPGKERELVAAITWSGGRTYYADSVKGRFTISRDNAKNTVYLQMNSLNPEDTAVYYCAAGKSSYGKPKYYYWGQGTQVTVSS	high polyreactivity
QLQLVESGGGLVQAGGSLRLSCAASGSIFADYAMGWYRQAPGKEREFVAAITRSGTSTYYADSVKGRFTISRDNAKNTVYFQMNSLKPEDTAGYYCAKTEVLLYLYTLDYWGQGTQVTVSS	low polyreactivity
QLQLVESGGGLVQAGGSLRLSCAASGSIFFGNVMGWYRQAPGKERELVAAINTDGRTYYADSVKGRFTISRDNAKNTVYLQMNSLKPEDTAVYYCAARKGYRYYYWGQGTQVTVSS	high polyreactivity
QLQLVESGGGLVQAGGSLRLSCAASGSIFNDTAMGSYRQAPGKDRELVAAISWNGGSTYYADSVKGRFTISRDNAKNTVYLQMNSLKPQDTAVYYCAVYARYWYLLHYRYGYWGQGTQVTVSS	low polyreactivity
QLQLVESGGGLVQAGGSLRLSCAASGSIFRGYAMGWYRQAPGKERELVAAISWSGGRTYYADSVKGRFTISRDYAKNTVYLQMNSLKPEDTSVFYCNAASLRYSYTLFDCWGQGTQVTVSS	high polyreactivity
QLQLVESGGGLVQAGGSLRLSCAASGSIFRINAMGWYRQEPGKESELVSAISTRSGRTYYADSVKVRFTISRDNSKNTVYLQMNSLKPEDTAVYYCARYRTQASGYGGYDYWGQGTQVTVSS	high polyreactivity
QLQLVESGGGLVQAGGSLRLSCAASGSIFSRYAMGWYIQAPGKEMELVAGITRGGSTNYADSVKGRFTLSRDNAKNTVYLHMNSLKPEDTAVYYCAKASRRFLTLGYDYWGQGTQVTVSS	high polyreactivity
QLQLVESGGGLVQAGGSLRLSCAASGSLFYVYAMGWYRAATGKERELVAAISDDGDTYYADSVKGRFTISRDHEKNTVYLQMNSLKPEDTEVYFCAAEGGANEENSSPEYDYWGLGTQVTVSS	low polyreactivity
QLQLVESGGGLVQAGGSLRLSCAASGSTFDYNAKGWYRQAPGKERELVAAITSTGGNTYYADSVKGRFTIARDNAKNSVYIQMNSLKQEDTAVYYCNKDVARYPYGKCDYWGQGTQVTVSS	low polyreactivity
QLQLVESGGGLVQAGGSLRLSCAASGSTFYTNAMGWYRQAPGKERELVAVITSRGGGTYYADSVKGRFTISRDNAKNTVYLQMNSLKPEDTAVYYCAAYPLVSWGRHGTKGDYWGQGTQVTVSS	low polyreactivity
QLQLVESGGGLVQAGGSLRLSCAASVRIFDVYAMGWYRQAPGKERELVAAITWDGGSTYYADSVKGRFTISRDNAKNTVYLQMNSLKPEDTAVYYCAAEPVYTQRKGYDYWGHGTQVTVSS	low polyreactivity
QLQLVESGGGLVQAGGSLRLSCADSASIFTCYAMGWDRQAPGKESELVARINVSAGITYYADSVMGRFTISRDNAKNPVYLQMNSLNPEDTAVYYCAATGLRRPKHNYWGQGPQVTVSS	low polyreactivity
QLQLVESGGGLVQAGGSLRLSCAPSGRIFAPYAMGWYIPAPVKERELVAAIRLSGGSTYYADSVKGRFTISRDNAKNTVYLKMNSLKPEDTEVYYCAARYPGVARFYYWGQATQVTVSS	high polyreactivity
QLQLVESGGGLVQAGGSLRLTCAASGSIFNDNAMGWYRPAPVKERELVAPINSDGSTYYADSVKGRFTISRDNAKNTVYLQMNSLKPEDTAVYYCNADTLLDNFTWDADGYDYWGQGTHVTVSS	low polyreactivity
QLQLVESGGRIVQAGGSLRLSCAASGITIRYYAMGWYRQAPGKERELVAAITRSGSTTYADSVKGRFTISRDNAKNTVYFQMNSLKPEDTAVYYCAVDFYYLTGGVDYWGQGTQVTVSS	low polyreactivity
QLQLVESGGVLVQAGGSLRLSCAASGLTFAYYAMGSYRQAPGKERELVAAISWNGGRTYYAYSVKGRFTISRDNAKNTVYLQMNSLKPEDTAVYYCATRFYRPRDGLYDYWGQGTQVTVSS	high polyreactivity
QLQLVESGPGLVQAGGSLRLSCAPSGSTFNRNAMGCYSQAPGKERELVAVISSGGSTYYADSVKGRFTISRDIAKNTVYLQMNSLKPEDTAVYYCAAGDPQKEDYWGQGTQVTVSS	low polyreactivity
QLQLVESLGGLFQAGGILRLSCAASGRTLRGYGNGWYRQAPAKEREFVAAISTRGGRTYYADSVKGRFTISRDNAKNTVYLQMKILKPEDTAVYYCAAAYEPGDYDSWGQGTQVTVSS	low polyreactivity
QLQLVESVGGLVHAGGSLRLSCAASGSTFVLYAMGWYRQAPGKERELVATITTSGARTHYADSVKGRFTISRDNAKNTVYLQMNRLKPEDTAVYNCAAESYWTGDDYWGQGTQVTVSS	low polyreactivity
QLQLVESVGVLVQAGGSLRLSCAASGFIFDGYAMGWYRQAPGKERELVAAIDSGGDRTYYADSVKGRFTISRDNAKNTVYLQMNSLKPEDTAVYYCARTFRTYAPRPYQGDYWGQGTQVTVSS	low polyreactivity
QLQLVETGGGLVQAGASLRLSCAASGSIFVPYAMGWYIQAPGKERELVAAISRGGDTNYADSVKGRFTISRDNAKNTVYLQMISLKPEDTAVYYCNRARHLYSRWHGGYYYWGQGTQVNVSS	low polyreactivity
QLQLVKSWGGLVQAGGSLRLSSAASGLTFELYDMGWYRQAPGKERELVAAIDWSATRTYYADSVKGRFTISRDNAKNTVYLQMNSLKPEDTEVYYCNAEAVYEYWIYDYWGQGTQVTVSS	high polyreactivity

Sequence	polyreactivity (PSR sort gate)
QRQLVESGGGLVQAGGSLRLSCAASGFIFDSNAMGRYRQEPGKERELVAAFAARGGSTYYADSVKGRFTISRDYAKHTLYLQMNSLKPEETAVYNCNAVYIVGGYWGQGTQVTVSS	high polyreactivity
QRQLVESGGGLVQAGGSLRLSCAASGIIFQGYAMGWYRQAPGKERELVAAISHHADSTYADSVKGRFTISRDNAKNPVYLQMNSLKPEDTAVYYCNADTPVRSDYWGQGTQVTVSS	low polyreactivity
QVEHVESGGGLVQAGGILRLSCAASGSTFYGYAMGWYRQARGKERELVAAITSSGGSTYYADSVKGRFTISRDNAKNSVYLQMNSLKPEDTADYYCNAKRAPWGTLYNYWGQGSQVTVSS	high polyreactivity
QVEIVESGGGLVQAGGSLRLSCAASGSIFRWNAMGWYRQAPGKERELVAAISKRGTNTYYADSVKCRFTISRDNAKNTVYLQMNSLKPEDTAVYYCNAQGHRQNGLGDYWGQGTQVTVSS	high polyreactivity
QVELQVSGGGLVRAGGSLRLSCAASGNIFDADIMGWYRQAPGKERELVASITGGGSTSYAESAKGRFTISRDNAKNAVYLQMNSLKPEDTAVYYCNAYFIYEGGWYYKAQYDYWGQGTQVTVSS	low polyreactivity
QVELVESGGGLVQAGGSLRLICAASGFTYTWNAMGWYRQAPGKERELVAGITRGGSTNYADSVKGRFTISRDNAKNTVYLQINSLKPEDTAVYYCNVSFYFHHAGYDFWGQGTQVTVSS	low polyreactivity
QVELVESGGGLVQAGGSLRLSCAASGCIFTFYAMGWYRTAPGKARELVAAISSSGTSTYYADSVKGRFTISRDNAKNTVYLQMNSLKPEDTAVYYCAAGTAYSRYGYWGQGTQVTVSS	high polyreactivity
QVELVESGGGLVQAGGSLRLSCAASGFTFHSNVMGWYRQAPGKERELVAAISNGGGSTYYADSVKGRFTISRDNAKNTVYLQMNSLKPEDTAVYYCDKRTYPGFGYWGQGTQVTVSS	high polyreactivity
QVELVESGGGLVQAGGSLRLSCAASGFTFVSYAMGWYRQAPGKEREFVATISKRGGSTYYADSVKGRFTISRDNAKNTVYLQMNSLKPEDTAVYYCAVRYPYYSYRAKLGYCGQGTQVTVSS	high polyreactivity
QVELVESGGGLVQAGGSLRLSCAASGSTFDPNAMGWYRQAPGKERELVASITSRGGSTYYADSVKGRFTISRDIAKNTVYLQMNSLKPEDTADYYCAAVGGATYSWNGYSWYPWHNYWGQGTQVTVSS	low polyreactivity
QVELVESGGGLVQAGGSLRLSCAASGSTFYRYAMGWYRQAPGKEREFVARIDWSDGSTNYADSVKGRFTISRDTAKNTVYLQMNSLKPEDTAVYYCAADTYYDTYDGEYEYWGQGTQVTVSS	low polyreactivity
QVELVESGGGVVQAGGSLRLSCAASGYIFRAYAMGWYRQAPGKERELVAAISSRGGSKYYADSVKGRFTSSRDNAKNTVYLQMNSLIPEDTAVYYCAAAYRKPYIGYGYWGQGTQGTVSS	high polyreactivity
QVELVYSGGGLVQAGGSLRLSCPASGSTFWYYAMGWSRQPPGKERELVAAINSGGSTFYADSVKGRFTISRDNAKNTVYLQMNSLKPEDTAVYYCAKRSYDYRRYYWGQGTQVTVSS	high polyreactivity
QVHHVESGGVLVQAGRILRVSCAASGSTFPRNAMGWYRHAPGKERELDAAITSRGGRTYYADSVKGRFTISRDNAKNTVYLQMISLKPEDTAVYYCARVGGIGSGRTGYGYWGQGSQVTVSS	high polyreactivity
QVHLAESGGGLVQAGGSLRLSCASSGIIFYFYAMGWYRQAPGKERELVAAISGTGGRTYYADSVKGRFTISRDNAKNTVYLQMNSLKPEDTAVYYCNADDTPVPSIRFDYWGQGTQVTVSS	low polyreactivity
QVHLEESGGGLVQAGGSLRLSCAASGFIFNAYAMGWYRQAPGKERELVAAISSSGGRTYYADSVKGRFTISRDNAKNTVYLQMNSLKPEVTAVYYCNTYRYYQYYRSMDYWGQGTQVTVSS	high polyreactivity
QVHLEESGGGLVQAGGSLRLSCAASGRIPFYAMGWYRQAPGKEREFVAAIRFSGGSTFYADSVKGRFTISRDNAKNTVYLQMNSLTPEDTAVYYCAAYLYYPFYWWRDYCGQGTQVTVSS	high polyreactivity
QVHLLESGGALVQAGGRLRLSCAASGRIFKTYAMGWYRQAPGKELEFVAAITASGGRTYYADSVKGRFTISRDNAKNTVYLQMNSLIPEDTAGYYCNARLVYYSYEEMDYWGQGTQVTVSS	low polyreactivity
QVHLQESGAGLEQAGGSLRLSCAASGYISDIGTMGCYRQAPGKEREFVATIVVGSTTNYADSVKGRFTISRDNAKNTLYLQPESGRYRGVLLRGWLLAVGKFTYWGQGTQETVSS	low polyreactivity
QVHLQESGGGLVQAGGSLRLSCAASGYITLAQTIGWYRQAPGQEREFVASIALGSSTYYTDSVKGSFTISRDNAKTTVYLQMNSLKPEDTAVYYCAARVGSSYAHDYWGQGTQVTVSS	low polyreactivity
QVHLQGSGGGLVQAGGSLRLSCAASGYIFQNDPMGWNLQAPGKERELVAGIDNGTSTNYADSVNGRFTISRDNAKNTVYLQMNSLKPEDTAVYYCSAAGQADDTLGYWGQGTEVTVSS	low polyreactivity
